Laboratory results published in PMC5025710, “The N-terminal domain plays a crucial role in the structure of a full-length human mitochondrial Lon protease” (Scientific Reports, 2016).
Blank lines part the entries; values can stand above or below the molecule they belong to.

Key:
[1] = target: proteolytically inactive human mitochondrial Lon protease mutant hLon S855A (human) (UniProt P36776); assay: cryo-EM structure; hLon S855A incubated with 1 mM ADP, 1 mg/ml diluted 5× in buffer B (20 mM HEPES pH 8.0, 150 mM NaCl, 5 mM MgCl2); map at 21 Å
[2] = target: proteolytically inactive human mitochondrial Lon protease mutant hLon S855A (human) (UniProt P36776); assay: cryo-EM structure; hLon S855A incubated with 1 mM AMP-PNP, 1 mg/ml diluted 5× in buffer B (20 mM HEPES pH 8.0, 150 mM NaCl, 5 mM MgCl2); map at 15 Å
[3] = target: the molecule itself; assay: cryo-EM 2D class averages; hLonΔ270, 1 mg/ml diluted 5× in buffer B; 2D class averages (Relion) compared with projections of five and six fitted 3M6A subunits; no 3D map
[4] = target: T1, hLonΔ270 mutant (Δ1–270), human Lon lacking its first 270 amino acids (human) (UniProt P36776)
T1 sequence: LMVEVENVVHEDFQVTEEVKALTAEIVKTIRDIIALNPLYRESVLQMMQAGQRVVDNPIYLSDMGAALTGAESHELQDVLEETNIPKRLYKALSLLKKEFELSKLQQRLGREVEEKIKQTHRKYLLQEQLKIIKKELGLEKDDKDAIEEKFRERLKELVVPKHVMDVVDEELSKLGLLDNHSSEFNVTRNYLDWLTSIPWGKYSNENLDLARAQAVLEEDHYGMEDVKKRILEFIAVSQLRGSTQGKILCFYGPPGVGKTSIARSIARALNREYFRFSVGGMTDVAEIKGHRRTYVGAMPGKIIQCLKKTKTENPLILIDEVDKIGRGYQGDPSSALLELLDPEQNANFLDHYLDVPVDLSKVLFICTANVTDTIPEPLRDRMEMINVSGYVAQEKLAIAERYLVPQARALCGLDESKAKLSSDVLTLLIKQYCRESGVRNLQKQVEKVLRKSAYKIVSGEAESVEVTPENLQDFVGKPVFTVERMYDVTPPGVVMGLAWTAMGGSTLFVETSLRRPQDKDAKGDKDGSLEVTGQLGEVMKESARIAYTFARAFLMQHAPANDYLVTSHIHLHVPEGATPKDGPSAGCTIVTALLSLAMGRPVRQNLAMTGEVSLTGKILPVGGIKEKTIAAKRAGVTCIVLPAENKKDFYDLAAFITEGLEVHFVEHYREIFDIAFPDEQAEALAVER

stoichiometry N [1]: 6
stoichiometry N [2]: 6
Molecule: proteolytically inactive human mitochondrial Lon protease mutant hLon S855A (from UniProt P36776 68-959) (enzyme)

B1: hLonΔ270 mutant (Δ1–270), human Lon lacking its first 270 amino acids (domain or fragment, UniProt P36776 271-959, looked up)
chain: LMVEVENVVHEDFQVTEEVKALTAEIVKTIRDIIALNPLYRESVLQMMQAGQRVVDNPIYLSDMGAALTGAESHELQDVLEETNIPKRLYKALSLLKKEFELSKLQQRLGREVEEKIKQTHRKYLLQEQLKIIKKELGLEKDDKDAIEEKFRERLKELVVPKHVMDVVDEELSKLGLLDNHSSEFNVTRNYLDWLTSIPWGKYSNENLDLARAQAVLEEDHYGMEDVKKRILEFIAVSQLRGSTQGKILCFYGPPGVGKTSIARSIARALNREYFRFSVGGMTDVAEIKGHRRTYVGAMPGKIIQCLKKTKTENPLILIDEVDKIGRGYQGDPSSALLELLDPEQNANFLDHYLDVPVDLSKVLFICTANVTDTIPEPLRDRMEMINVSGYVAQEKLAIAERYLVPQARALCGLDESKAKLSSDVLTLLIKQYCRESGVRNLQKQVEKVLRKSAYKIVSGEAESVEVTPENLQDFVGKPVFTVERMYDVTPPGVVMGLAWTAMGGSTLFVETSLRRPQDKDAKGDKDGSLEVTGQLGEVMKESARIAYTFARAFLMQHAPANDYLVTSHIHLHVPEGATPKDGPSAGCTIVTALLSLAMGRPVRQNLAMTGEVSLTGKILPVGGIKEKTIAAKRAGVTCIVLPAENKKDFYDLAAFITEGLEVHFVEHYREIFDIAFPDEQAEALAVER
notes: primers Lon_271_FW and Lon_960_RV (to the stop codon); A few vector residues probably remain after PreScission cleavage (surmised from the primer); also called shortened hLon; source: in-fusion cloning into pOPINJ; not shown: 6×His-GST, N-terminal, cleaved
stoichiometry N [3]: 6

stimulation of the ATPase activity of hLonΔ270 by β-casein (25 μg β-casein, 5 μg hLon, 37 °C) [4]: 2 fold
stimulation of the peptidase activity of hLonΔ270 (glutaryl-Ala-Ala-Phe-MNA) by β-casein (25 μg β-casein, 5 μg hLon, 37 °C) [4]: 2 fold
B2: β-casein (natural protein)
chain: RELEELNVPGEIVESLSSSEESITRINKKIEKFQSEEQQQTEDELQDKIHPFAQTQSLVYPFPGPIPNSLPQNIPPLTQTPVVVPPFLQPEVMGVSKVKEAMAPKHKEMPFPKYPVEPFTESQSLTLTDVENLHLPLPLLQSWMHQPHQPLPPTVMFPPQSVLSLSQSKVLPVPQKAVPYPQRDMPIQAFLLYQEPVLGPVRGPFPIIV
